For one molecule, ECL signal results are on record in patent US20110318339A1 (FABRUS, published 2011).

The target in assay [1] is T1, rHuman ErbB2/Fc Chimera, CF (Cat# 1129-ER) (human, UniProt P04626 23-652).
T1 construct: Bought from R&D Systems; also called human epidermal growth factor 2 receptor (ErbB2)
The assay is described as follows: Multispot ECL; Fab 130 nM. On the procedure:
(§1) An 150 μl aliquot of 1% Bovine Serum Albumin (BSA) in Tris-buffered Saline Tween (TBST) was added to each well and allowed to incubate for 30 min at 20° C. followed by washing and tap drying to completely remove any residual solution. Subsequently, a 12.5 μl aliquot of 1% BSA TBST was added to each well followed by the addition of a 12.5 μl aliquot of a purified Fab. The plate was sealed and incubated for 1 hour at 20° C. with shaking.
(§2) Detection antibodies were prepared by individually conjugating both goat anti-human Kappa light chain polyclonal antibody (K3502-1MG, Sigma-Aldrich) and goat anti-human Lambda light chain polyclonal antibody (L1645-1 mL, Sigma-Aldrich) with Ruthenium (II) tris-bipyridine-(4-methylsulfone)-N-hydroxysuccinimide (SULFO-TAG NHS-ester, Meso Scale Discovery) according to the manufacturer's instructions. TAG-detection antibody at 25 μl was added to each well and allowed to incubate for 1 hour at 20° C. with shaking. Finally, 15 μl of Read Buffer P with Surfactant (Cat # R92PC-1, Meso Scale Discovery) was added to each well. The electrochemiluminescence was measured using a Sector Imager 2400 (Meso Scale Discovery). Data was analyzed by comparing the ECL signals for an antigen to the blank of each well. A signal to blank ratio of 4 or more was considered a “Hit” Fab.
(§3) To confirm a “Hit” from the initial Multispot ECL screening, a Fab concentration dependent titration was carried out to determine the Fab-antigen binding affinity.

Assay [2] addresses T2, rHuman EGF R/Fc Chimera, CF (Cat# 344-ER) (human, UniProt P00533 25-645).
T2 construct: Bought from R&D Systems; also called epidermal growth factor receptor (EGF R)
The assay is described as follows: Multispot ECL; Fab 130 nM. On the procedure:
as §1, §2, §3

Assay [3] deals with T3, rHuman HGF R/c-MET/Fc Chimera, CF (Cat# 358-MT/CF) (human, UniProt P08581 25-932).
T3 construct: Bought from R&D Systems; also called HGF R/Fc; hepatocyte growth factor receptor (HGF R/c-Met)
The assay is described as follows: Multispot ECL; Fab 130 nM. On the procedure: as §1, §2, §3

For assay [4], the target named is T4, rHuman Notch-1/Fc Chimera, CF (Cat# 3647-TK) (human, UniProt P46531 19-526).
T4 construct: Bought from R&D Systems
As to the kind of experiment: Multispot ECL; Fab 130 nM. On the procedure:
as §1, §2, §3

The target of assay [5] is T5, rHuman CD44/Fc Chimera, CF (Cat# 3660-CD) (human, UniProt P16070 21-220).
T5 construct: Bought from R&D Systems
The assay is described as follows: Multispot ECL; Fab 130 nM. On the procedure:
as §1, §2, §3

The target in assay [6] is T6, rHuman IGF-1 sR, (IGF-1 sR), CF (Cat# 391-GR) (human, UniProt P08069 31-932).
T6 construct: Bought from R&D Systems; also called insulin-like growth factor-1 soluble receptor
As to the kind of experiment: Multispot ECL; Fab 130 nM. On the procedure:
as §1, §2, §3

Assay [7] concerns the target T7, rHuman Erythropoietin R/Fc Chimera, CF (Cat# 963-ER) (human, UniProt P19235 25-250).
T7 construct: Bought from R&D Systems; also called EPO R/Fc; Epo R/Fc chimera
T7 sequence (looked up): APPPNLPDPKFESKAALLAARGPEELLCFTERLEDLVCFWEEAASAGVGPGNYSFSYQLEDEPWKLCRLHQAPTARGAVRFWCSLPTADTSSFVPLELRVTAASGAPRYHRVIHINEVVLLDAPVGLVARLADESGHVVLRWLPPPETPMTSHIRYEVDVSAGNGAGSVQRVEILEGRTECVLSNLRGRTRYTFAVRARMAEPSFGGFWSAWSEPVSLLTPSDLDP
As to the kind of experiment: Multispot ECL; Fab 130 nM. On the procedure:
as §1, §2, §3

Assay [8] addresses T8, Recombinant Human DLL4 (Cat# 1506-D4/CF) (human, UniProt Q9NR61 27-529).
T8 construct: Bought from R&D Systems; also called rHuman DLL4; hDLL4
The assay is described as follows: Multispot ECL; Fab 130 nM. On the procedure:
as §1, §2, §3

Assay [9] has as its target T1, rHuman ErbB2/Fc Chimera, CF (Cat# …). As to the kind of experiment: Multispot ECL; Fab 2.0 nM. On the procedure:
as §1, §2, §3

Assay [10] addresses T3, rHuman HGF R/c-MET/Fc Chimera, CF (Cat# …). The assay is described as follows: Multispot ECL; Fab 2.0 nM. On the procedure:
as §1, §2, §3

Assay [11] has as its target T4, rHuman Notch-1/Fc Chimera, CF (Cat# …). The assay is described as follows: Multispot ECL; Fab 2.0 nM. On the procedure: as §1, §2, §3
Assay [12] addresses T5, rHuman CD44/Fc Chimera, CF (Cat# …). The assay is described as follows: Multispot ECL; Fab 2.0 nM. On the procedure: as §1, §2, §3
Assay [13] concerns the target T6, rHuman IGF-1 sR, (IGF-1 sR), CF (Cat# …). As to the kind of experiment: Multispot ECL; Fab 2.0 nM. On the procedure:
as §1, §2, §3

B1: Fab VH1-8_IGHD2-2*01_IGHJ6*01 & L12_IGKJ1*01 (Fab, V domains shown)
VH: QVQLVQSGAEVKKPGASVKVSCKASGYTFTSYDINWVRQATGQGLEWMGWMNPNSGNTGYAQKFQGRVTMTRNTSISTAYMELSSLRSEDTAVYYCARGGYCSSTSCYADYYYYYGMDVWGQGTTVTVSS
VL: not shown
As for B1, the ECL signal came out at 1530 in [1]; 1750 in assay [2]; 1880 in assay [3]; 1760 in assay [4]; 1750 in assay [5]; 1970 in [6]. The ECL signal was determined as 2150 in [7]; 7740 in assay [8]; 382 in [9]; 356 in assay [10]; 539 in assay [11]; 447 in assay [12]. In addition, the ECL signal in assay [13] turned out to be 367.
